{"source": "the supplement of paper PMC9732359", "note": "± gives the uncertainty stated by the source.", "data": [{"assay": "protein stability index of a GFP-peptide fusion (yeast GPS) (PSI 1-4); higher = more stable; sorted into four equal gates, so the index is relative within each strain", "details": "ubr1∆", "summary_of_the_method": "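For each peptide, the protein stability index sums the read frequency in every gate after multiplying it by the gate number. Read frequencies came from plasmids that were PCR-amplified from each gate and Illumina-sequenced, with reads assigned to strains by barcodes. The gates were four equal bins of GFP/Cherry fluorescence ratio applied to mid-log yeast in leucine-free medium carrying a pooled library of tiled 17-residue yeast protein peptides fused downstream of GFP on a Cherry-expressing plasmid.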", "values": [{"sequence": "SVMMQDSPASNEDDLTV [RPO31]", "protein stability index": "3.31 ± 0.12"}, {"sequence": "SVQNLDQLLTDLIETSF [NUT1]", "protein stability index": "2.85 ± 0.11"}, {"sequence": "SVRGAIVGPDLAVLALV [RPS6A]", "protein stability index": "1.38 ± 0.045"}, {"sequence": "SVRKFLEIALFKYRKAR [RPO31]", "protein stability index": "1.32 ± 0.15"}, {"sequence": "SVRLFSFLDPLNYGNIC [YJL039C/NUP192]", "protein stability index": "2 ± 0.063"}, {"sequence": "SVSSPIELNFDAVKDFK [QCR2]", "protein stability index": "1.57 ± 0.053"}, {"sequence": "SVTRAGNIISSDKTIVP [SIN4]", "protein stability index": "3.1 ± 0.068"}, {"sequence": "SWSNGKITSPIRSVALN [RRP42]", "protein stability index": "2.81 ± 0.073"}, {"sequence": "SWSSSAAVIMRCKIYFF [PCI8]", "protein stability index": "1.28 ± 0.047"}, {"sequence": "SYANHLEESDVEDTLHV [YOR098C/NUP1]", "protein stability index": "1.97 ± 0.051"}, {"sequence": "SYHLWPSFTDEQWITIE [PRP8]", "protein stability index": "2.57 ± 0.057"}, {"sequence": "SYLISHKDSFYDRATLT [RPO31]", "protein stability index": "2.35 ± 0.072"}, {"sequence": "SYLSETLISRISSLFTI [YML103C/NUP188]", "protein stability index": "2.05 ± 0.083"}, {"sequence": "SYSGYDIEDALVLNKSS [RET1]", "protein stability index": "2.45 ± 0.047"}, {"sequence": "SYSPTSPSYSPTSPAYS [RPO21]", "protein stability index": "3.15 ± 0.048"}, {"sequence": "SYTAFSRLTLLLRALKT [PRP8]", "protein stability index": "1.25 ± 0.035"}, {"sequence": "SYWQKSYFKNSVIVKFH [LIN1]", "protein stability index": "2.35 ± 0.041"}, {"sequence": "TAAETFKLFNKYRPETA [RPL8A]", "protein stability index": "2.8 ± 0.051"}, {"sequence": "TAAQVANVELTPSNIRS [RPC34]", "protein stability index": "2.87 ± 0.093"}, {"sequence": "TAELIKELKEKEAAESP [PUP2]", "protein stability index": "3.22 ± 0.074"}, {"sequence": "TAKKDMSSTTPKLESVK [SNF12]", "protein stability index": "3.27 ± 0.04"}, {"sequence": "TAKRKSRKRKPKSASNT [IRR1]", "protein stability index": "3.08 ± 0.055"}, {"sequence": "TAMKKVEDGNILVFQVS [RPL25]", "protein stability index": "2.8 ± 0.044"}, {"sequence": "TAQEINFKMLVLLATWN [IRR1]", "protein stability index": "1.83 ± 0.031"}, {"sequence": "TASDQLFGMCESLYEPN [PUP3]", "protein stability index": "1.83 ± 0.039"}, {"sequence": "TATTGKRKPAKSSSNRS [RPN4]", "protein stability index": "2.85 ± 0.047"}, {"sequence": "TAVNGIDTDLFGAPNNP [YGL172W/NUP49]", "protein stability index": "3.19 ± 0.053"}, {"sequence": "TAVVNNAAPANVTGGKA [SWI1]", "protein stability index": "2.66 ± 0.037"}, {"sequence": "TCGSKGSTLNVSQMVAV [RPO31]", "protein stability index": "2.79 ± 0.15"}, {"sequence": "TCSCCKKTVAGGAYTVS [RPL43A]", "protein stability index": "2.15 ± 0.066"}, {"sequence": "TCSYVEEAGSPLVYRHE [RPB9]", "protein stability index": "2.75 ± 0.28"}, {"sequence": "TDLENSSLFQEKLLETN [ECM29]", "protein stability index": "2.68 ± 0.057"}, {"sequence": "TDLRLSTNGLGMCQLYF [SNU114]", "protein stability index": "3.08 ± 0.21"}, {"sequence": "TDNVSMYPSPTGVMIGI [PRP8]", "protein stability index": "2.3 ± 0.041"}, {"sequence": "TEAAFTKLDQVWGSETV [RPL4A]", "protein stability index": "2.15 ± 0.14"}, {"sequence": "TEKDDNKTNNEDLFDDY [NUT1]", "protein stability index": "3.08 ± 0.049"}, {"sequence": "TELVDGRENFVYANNPE [SIR3]", "protein stability index": "2.95 ± 0.083"}, {"sequence": "TERVVEIGPSPTLAGMA [FAS2]", "protein stability index": "2.496 ± 0.012"}, {"sequence": "TESLRVENSVLIEKVDD [YIL149C/MLP2]", "protein stability index": "2.79 ± 0.074"}, {"sequence": "TESVPEPKLFRMRIFAS [RPL20A]", "protein stability index": "1.21 ± 0.24"}, {"sequence": "TETEVEREQPQENKNID [SRB4]", "protein stability index": "3.62 ± 0.089"}, {"sequence": "TFAKSKNYSRPSTAIHT [SIR4]", "protein stability index": "2.15 ± 0.05"}, {"sequence": "TFLLNNKNIDIGLLNKS [RPN2]", "protein stability index": "2.61 ± 0.11"}, {"sequence": "TFLSEWGMEPLEDYVPH [RPB2]", "protein stability index": "2.81 ± 0.14"}, {"sequence": "TFNNQDKGLLPYAIMET [RPO31]", "protein stability index": "1.48 ± 0.058"}, {"sequence": "TFTFTAHMGVLLVLLQD [SWP82]", "protein stability index": "1.42 ± 0.035"}, {"sequence": "TFVVEQLIKQSIKNNVA [SNU114]", "protein stability index": "2.38 ± 0.27"}, {"sequence": "TGAGAFGTGQSTFGFNN [YJL041W/NSP1]", "protein stability index": "2.85 ± 0.046"}, {"sequence": "TGEFDFEAAVKMSDGFN [RPT4]", "protein stability index": "3.31 ± 0.16"}, {"sequence": "TGHPKGAAGAWMMNGAL [FAS2]", "protein stability index": "1.66 ± 0.052"}, {"sequence": "TGKTLLAKAVAATIGAN [RPT4]", "protein stability index": "2.08 ± 0.13"}, {"sequence": "TGKTLLARACAAQTNAT [RPT5]", "protein stability index": "2.61 ± 0.29"}, {"sequence": "TGKYGVRYGSSLRRQVK [RPL43A]", "protein stability index": "3.06 ± 0.046"}, {"sequence": "TGMSSMSPFLRKVVKPS [SRB4]", "protein stability index": "2.48 ± 0.049"}, {"sequence": "TGSLMGGNSTQNTSNMN [YGR119C/NUP57]", "protein stability index": "3.18 ± 0.048"}, {"sequence": "TGYDLSNSVFSPDGRNF [PRE10]", "protein stability index": "2.97 ± 0.087"}, {"sequence": "THEDLPKEVDGLEVGPV [IRR1]", "protein stability index": "3.18 ± 0.086"}, {"sequence": "THPKDTFYITREKYNMK [ARP9]", "protein stability index": "3.31 ± 0.064"}, {"sequence": "TIAKQVLNGQKIVVVRA [RPL16B]", "protein stability index": "2.6 ± 0.14"}, {"sequence": "TIFKYLTDKDAFETHYR [CDC53]", "protein stability index": "2.98 ± 0.061"}, {"sequence": "TIISPHKDIPEEDFYTV [DSN1]", "protein stability index": "3.19 ± 0.054"}, {"sequence": "TIKILPENTAMFNPLHE [YMR129W/POM152]", "protein stability index": "2.5 ± 0.05"}, {"sequence": "TIRLWECGTGTTIHTFN [RPN14]", "protein stability index": "1.99 ± 0.13"}, {"sequence": "TIRYLMQKQHEMKTQAA [SNF6]", "protein stability index": "2.9 ± 0.032"}, {"sequence": "TISVPQIRDVMERFSVL [RRP6]", "protein stability index": "2.68 ± 0.13"}, {"sequence": "TITKRNGAFQNSSNLSY [RRP4]", "protein stability index": "3.11 ± 0.042"}, {"sequence": "TKDIFPLQNIHVRKVKL [RPS1A]", "protein stability index": "2.84 ± 0.09"}, {"sequence": "TKFKGGKRQLMKAVGEY [SEC65]", "protein stability index": "2.46 ± 0.088"}, {"sequence": "TKISTLAVKVHGGSRYA [QCR2]", "protein stability index": "1.41 ± 0.17"}, {"sequence": "TKLNLHCVIEDDESEQI [RRI1]", "protein stability index": "2.65 ± 0.15"}, {"sequence": "TKLTTCKRELAFVKQKN [YIL149C/MLP2]", "protein stability index": "1.48 ± 0.071"}, {"sequence": "TKNDAGSKQILKTEAAN [BRR2]", "protein stability index": "3.04 ± 0.055"}, {"sequence": "TKPAIRRLARRGGVKRI [HHF1]", "protein stability index": "3.45 ± 0.1"}, {"sequence": "TKPSETPATIVKKPTFT [YOR098C/NUP1]", "protein stability index": "3.04 ± 0.054"}, {"sequence": "TKSKNKTLIGLQGIVIW [POP4]", "protein stability index": "2.73 ± 0.034"}, {"sequence": "TKSSKEFFNTLRKSRET [RRI2]", "protein stability index": "2.92 ± 0.11"}, {"sequence": "TKVNNQLIKVAVHNGDR [RPL9B]", "protein stability index": "2.4 ± 0.029"}, {"sequence": "TLASLIRYNSVEIQEVP [RPC82]", "protein stability index": "2.54 ± 0.077"}, {"sequence": "TLDKKDSIPLRITNSFY [RPN9]", "protein stability index": "2.92 ± 0.13"}, {"sequence": "TLDVEAFKSVVSTETFE [RPL27A]", "protein stability index": "2.46 ± 0.053"}, {"sequence": "TLEDALRRIITDLNQDS [GRR1]", "protein stability index": "2.4 ± 0.053"}, {"sequence": "TLEDKFLLLAVNKYGLR [ISW2]", "protein stability index": "2.29 ± 0.049"}, {"sequence": "TLESLENLVVADLESFA [COR1]", "protein stability index": "2.3 ± 0.043"}, {"sequence": "TLGNLIRAELLNDRKVL [RPB11]", "protein stability index": "2.87 ± 0.23"}, {"sequence": "TLGNQMLSAHNIIESIA [YJR042W/NUP85]", "protein stability index": "2.79 ± 0.072"}, {"sequence": "TLLSPKDNGMLIIDGQI [RPO21]", "protein stability index": "1.78 ± 0.058"}, {"sequence": "TLNPDLFLYKELVKAHL [RPC82]", "protein stability index": "2.42 ± 0.055"}, {"sequence": "TLRKELEQIQVQLKDAN [YIL149C/MLP2]", "protein stability index": "2.24 ± 0.051"}, {"sequence": "TLSHLRRTNTPIGRDGK [RPB2]", "protein stability index": "2.08 ± 0.036"}, {"sequence": "TLVEIFLERKCVHMVYE [SSN3]", "protein stability index": "1.75 ± 0.048"}, {"sequence": "TLVSTDNYFNLQLNEAE [SMX3]", "protein stability index": "2.79 ± 0.048"}, {"sequence": "TMGGNAELELVDSLDPF [SMC4]", "protein stability index": "3.15 ± 0.084"}, {"sequence": "TMGMRALLKLSVKLKQK [DIS3]", "protein stability index": "1.33 ± 0.07"}, {"sequence": "TMQPPYIQERLKSLNDI [MED11]", "protein stability index": "2.82 ± 0.056"}, {"sequence": "TNFEILNEMLNTRKNMS [DIS3]", "protein stability index": "3.09 ± 0.041"}, {"sequence": "TNFSPTPANNGENAAEK [SNF2]", "protein stability index": "2.81 ± 0.05"}, {"sequence": "TNHSAAASTPTTTATPH [PGD1]", "protein stability index": "2.939 ± 0.023"}, {"sequence": "TNILISPLNTTTKILGD [YML103C/NUP188]", "protein stability index": "1.51 ± 0.033"}, {"sequence": "TNNVLRKLGLLGDKEDE [MTW1]", "protein stability index": "2.58 ± 0.049"}, {"sequence": "TNPSSIFGGAGGVPTTS [YOR098C/NUP1]", "protein stability index": "1.59 ± 0.053"}, {"sequence": "TNWIIYPLWVMAKQLIR [CSN12]", "protein stability index": "1.24 ± 0.11"}, {"sequence": "TPAELVGKFLGYVSSLV [FAS1]", "protein stability index": "2.06 ± 0.055"}, {"sequence": "TPEYAAEKVKVRDELRK [UBP6]", "protein stability index": "1.46 ± 0.07"}, {"sequence": "TPIIFIGTGEHIHDLEK [SRP54]", "protein stability index": "2.45 ± 0.056"}, {"sequence": "TPLTENILIASLMDTLI [YCG1]", "protein stability index": "2.35 ± 0.035"}, {"sequence": "TPNTNSNSTPNANQQFL [SWI1]", "protein stability index": "3.1 ± 0.035"}]}]}
